Experiment [1] concerns the target human GLP-1 receptor (human, UniProt P43220 24-463). Put plainly: cell-based or functional assay.
Experiment [2] concerns the target T1, human GFRAL (human, UniProt Q6UXV0 19-394).
T1 sequence (looked up): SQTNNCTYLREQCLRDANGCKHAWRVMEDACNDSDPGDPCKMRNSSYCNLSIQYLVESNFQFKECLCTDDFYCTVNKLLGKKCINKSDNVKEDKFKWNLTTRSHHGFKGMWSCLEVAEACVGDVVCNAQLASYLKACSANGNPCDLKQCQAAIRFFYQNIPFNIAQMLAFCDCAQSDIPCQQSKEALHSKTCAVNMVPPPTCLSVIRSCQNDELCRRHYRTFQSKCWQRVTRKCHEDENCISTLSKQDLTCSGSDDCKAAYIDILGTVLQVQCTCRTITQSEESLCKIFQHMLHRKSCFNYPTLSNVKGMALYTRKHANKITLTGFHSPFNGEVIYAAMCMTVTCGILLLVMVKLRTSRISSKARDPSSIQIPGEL
Put plainly: cell-based or functional assay.

Some results are limits rather than exact numbers.

B1: MLC022 (ligand)
chain: HGEGTFTSDVSSYLEEQAAKEFIAWLVRGGGGQEPGQEPGQEPGQEPGQEPGQEPARQGDHCPLGPGRCCRLHTVRASLEDLGWADWVLSPREVQVTMCIGACPSQFRAANLHAQIKTSLHRLKPDTVPAPCCVPASYNPMVLIQKTDTGVSLQTYDDLLAKDCHCI
In the case of B1, the “GLP-1 activity (EC50, pM)” value in experiment [1] is 6.7 pM. The “GDF15 activity (EC50, pM)” value in experiment [2] turned out to be 59.2 pM.

B2: MLC023 (ligand)
chain: HGEGTFTSDVSSYLEEQAAKEFIAWLVRGGGGQEPGQEPGQEPARQGDHCPLGPGRCCRLHTVRASLEDLGWADWVLSPREVQVTMCIGACPSQFRAANLHAQIKTSLHRLKPDTVPAPCCVPASYNPMVLIQKTDTGVSLQTYDDLLAKDCHCI
With B2, the “GLP-1 activity (EC50, pM)” value in experiment [1] turned out to be 4 pM. In addition, in experiment [2], the “GDF15 activity (EC50, pM)” value was 62.8 pM.

B3: MLC006 (ligand)
chain: HGEGTFTSDVSSYLEEQAAREFIAWLVRGKGGQEPGQEPGQEPGQEPGQEPGQEPGQEPGQEPGAQPGAQPARQGDHCPLGPGRCCRLHTVRASLEDLGWADWVLSPREVQVTMCIGACPSQFRAANLHAQIKTSLHRLRPDTVPAPCCVPASYNPMVLIQRTDTGVSLQTYDDLLARDCHCI
modifications: Moiety A (HOOC-(CH2)16-CO-gGlu-2XADO) on 36K of GLP-1 (30K of fusion polypeptide)
With B3, the “GLP-1 activity (EC50, pM)” value in experiment [1] stood at 28.7 pM. Also, in experiment [2], the “GDF15 activity (EC50, pM)” value was found to be 11.6 pM.

B4: MLC008 (ligand)
chain: HGEGTFTSDVSSYLEEQAAREFIAWLVRGGGGQEPGKEPGQEPGQEPGQEPGQEPGQEPGQEPGAQPGAQPARQGDHCPLGPGRCCRLHTVRASLEDLGWADWVLSPREVQVTMCIGACPSQFRAANLHAQIKTSLHRLRPDTVPAPCCVPASYNPMVLIQRTDTGVSLQTYDDLLARDCHCI
modifications: Moiety A (HOOC-(CH2)16-CO-gGlu-2XADO) on 6K of Linker (37K of fusion polypeptide)
On to B4, for which the “GLP-1 activity (EC50, pM)” value in experiment [1] is 4.3 pM. Besides, in experiment [2], the “GDF15 activity (EC50, pM)” value was determined as 15.3 pM.

B5: MLC002 (ligand)
chain: HGEGTFTSDVSSYLEEQAAKEFIAWLVRGGGGQEPGQEPGQEPGQEPGQEPGQEPGQEPGQEPGAQPGAQPARQGDHCPLGPGRCCRLHTVRASLEDLGWADWVLSPREVQVTMCIGACPSQFRAANLHAQIKTSLHRLRPDTVPAPCCVPASYNPMVLIQRTDTGVSLQTYDDLLARDCHCI
modifications: Moiety A (HOOC-(CH2)16-CO-gGlu-2XADO) on 26K of GLP-1 (20K of fusion polypeptide)
For B5, the “GLP-1 activity (EC50, pM)” value in experiment [1] was found to be 13.1 pM. The “GDF15 activity (EC50, pM)” value in experiment [2] came out at 17.9 pM.

B6: MLC003 (ligand)
chain: HGEGTFTSDVSSYLEEQAAKEFIAWLVRGGGGQEPGQEPGQEPGQEPGQEPGQEPGQEPGQEPGAQPGAQPARQGDHCPLGPGRCCRLHTVRASLEDLGWADWVLSPREVQVTMCIGACPSQFRAANLHAQIKTSLHRLRPDTVPAPCCVPASYNPMVLIQRTDTGVSLQTYDDLLARDCHCI
For the molecule B6, the “GLP-1 activity (EC50, pM)” value in experiment [1] is 7.8 pM. Also, the “GDF15 activity (EC50, pM)” value in experiment [2] came to 55 pM.

B7: MLC020 (ligand)
chain: HGEGTFTSDVSSYLEEQAAKEFIAWLVRGGGGQEPGQEPGQEPGQEPGQEPGQEPGQEPGQEPGAQPGAQPARQGDHCPLGPGRCCRLHTVRASLEDLGWADWVLSPREVQVTMCIGACPSQFRAANLHAQIKTSLHRLKPDTVPAPCCVPASYNPMVLIQKTDTGVSLQTYDDLLAKDCHCI
B7: the “GDF15 activity (EC50, pM)” value in experiment [2] turned out to be 55.9 pM.

B8: MLC009 (ligand)
chain: HGEGTFTSDVSSYLEEQAAREFIAWLVRGGGGQEPGQEPGQEPGQKPGQEPGQEPGQEPGQEPGAQPGAQPARQGDHCPLGPGRCCRLHTVRASLEDLGWADWVLSPREVQVTMCIGACPSQFRAANLHAQIKTSLHRLRPDTVPAPCCVPASYNPMVLIQRTDTGVSLQTYDDLLARDCHCI
modifications: Moiety A (HOOC-(CH2)16-CO-gGlu-2XADO) on 15K of Linker (46K of fusion polypeptide)
On to B8, for which the “GLP-1 activity (EC50, pM)” value in experiment [1] amounted to 1.8 pM. For the same molecule, the “GDF15 activity (EC50, pM)” value in experiment [2] turned out to be 24.6 pM.

B9: MLC012 (ligand)
chain: HGEGTFTSDVSSYLEEQAAREFIAWLVRGGGGQEPGQEPGQEKGQEPGQEPGQEPGQEPGQEPGQEPGQEPARQGDHCPLGPGRCCRLHTVRASLEDLGWADWVLSPREVQVTMCIGACPSQFRAANLHAQIKTSLHRLRPDTVPAPCCVPASYNPMVLIQRTDTGVSLQTYDDLLARDCHCI
modifications: Moiety A (HOOC-(CH2)16-CO-gGlu-2XADO) on 12K of Linker (43K of fusion polypeptide)
Turning to B9, the “GLP-1 activity (EC50, pM)” value in experiment [1] was 3.5 pM. Besides, in experiment [2], the “GDF15 activity (EC50, pM)” value turned out to be 32.8 pM.

B10: MLC007 (ligand)
chain: HGEGTFTSDVSSYLEEQAAREFIAWLVRGGGKQEPGQEPGQEPGQEPGQEPGQEPGQEPGQEPGAQPGAQPARQGDHCPLGPGRCCRLHTVRASLEDLGWADWVLSPREVQVTMCIGACPSQFRAANLHAQIKTSLHRLRPDTVPAPCCVPASYNPMVLIQRTDTGVSLQTYDDLLARDCHCI
modifications: Moiety A (HOOC-(CH2)16-CO-gGlu-2XADO) on 1K of Linker (32K of fusion polypeptide)
With B10, the “GLP-1 activity (EC50, pM)” value in experiment [1] came out at 5.9 pM. In experiment [2], the “GDF15 activity (EC50, pM)” value is 9.5 pM.

B11: MLC043 (ligand)
chain: HGEGTFTSDVSSYLEEQAAKEFIAWLVRGGGGQEPGAQPGQEPGAQPGQEPGAQPGQEPGAQPGQEPGAQPGQEPGAQPGAQPGAQPGAQPARQGDHCPLGPGRCCRLHTVRASLEDLGWADWVLSPREVQVTMCIGACPSQFRAANLHAQIKTSLHRLRPDTVPAPCCVPASYNPMVLIQRTDTGVSLQTYDDLLARDCHCI
modifications: Moiety A (HOOC-(CH2)16-CO-gGlu-2XADO) on 26K of GLP-1 (20K of fusion polypeptide)
Turning to B11, in experiment [1], the “GLP-1 activity (EC50, pM)” value was 1.8 pM. Moreover, the “GDF15 activity (EC50, pM)” value in experiment [2] worked out at 39 pM.

B12: MLC124 (ligand)
chain: HGEGTFTSDVSSYLEEQAAKEFIAWLVRGGGGQEPGAQPGQEPGAQPGQEPGAQPGQEPGAQPGQEPGAQPGQEPGAQPGAQPGAQPGAQPARQGDHCPLGPGRCCRLHTVRASLEDLGWADWVLSPREVQVTMCIGACPSQFRAANLHAQIKTSLHRLRPDTVPAPCCVPASYNPMVLIQRTDTGVSLQTYDDLLARDCHCI
For the molecule B12, the “GLP-1 activity (EC50, pM)” value in experiment [1] came to 2.5 pM. In addition, the “GDF15 activity (EC50, pM)” value in experiment [2] was found to be 27.5 pM.

B13: MLC097 (ligand)
chain: EGTFTSDVSSYLEEQAAKEFIAWLVRGGGGQEPGAQPGQEPGAQPGQEPGAQPGQEPGAQPGQEPGAQPGQEPGAQPGAQPGAQPGAQPGAQPGAQPGAQPGAQPGAQPARQGDHCPLGPGRCCRLHTVRASLEDLGWADWVLSPREVQVTMCIGACPSQFRAANLHAQIKTSLHRLKPDTVPAPCCVPASYNPMVLIQKTDTGVSLQTYDDLLAKDCHCI
For the molecule B13, in experiment [1], the “GLP-1 activity (EC50, pM)” value is more than 900 pM. Also, in experiment [2], the “GDF15 activity (EC50, pM)” value was 32.9 pM.

B14: MLC026 (ligand)
chain: HGEGTFTSDVSSYLEEQAAREFIAWLVRGGGGAQPGAQPGAQPGAQPGAQPGAQPGAQPGAQPGAQPGAQPGQEPGQEPGQEPGQKPGQEPGQEPGQEPGQEPGAQPGAQPARQGDHCPLGPGRCCRLHTVRASLEDLGWADWVLSPREVQVTMCIGACPSQFRAANLHAQIKTSLHRLRPDTVPAPCCVPASYNPMVLIQRTDTGVSLQTYDDLLARDCHCI
modifications: Moiety A (HOOC-(CH2)16-CO-gGlu-2XADO) on 55K of Linker (86K of fusion polypeptide)
For B14, the “GDF15 activity (EC50, pM)” value in experiment [2] was found to be 56.1 pM.

B15: MLC027 (ligand)
chain: HGEGTFTSDVSSYLEEQAAREFIAWLVRGGGGAQPGAQPGAQPGAQPGAQPGAQPGAQPGAQPGQEPGAQPGQEPGAQPGQEPGQKPGQEPGQEPGQEPGQEPGAQPGAQPARQGDHCPLGPGRCCRLHTVRASLEDLGWADWVLSPREVQVTMCIGACPSQFRAANLHAQIKTSLHRLRPDTVPAPCCVPASYNPMVLIQRTDTGVSLQTYDDLLARDCHCI
modifications: Moiety A (HOOC-(CH2)16-CO-gGlu-2XADO) on 55K of Linker (86K of fusion polypeptide)
As for B15, the “GDF15 activity (EC50, pM)” value in experiment [2] is 45.4 pM.

B16: MLC100 (ligand)
chain: HGEGTFTSDVSSYLEEQAAKEFIAWLVRGGGGQEPARQGDHCPLGPGRCCRLHTVRASLEDLGWADWVLSPREVQVTMCIGACPSQFRAANLHAQIKTSLHRLKPDTVPAPCCVPASYNPMVLIQKTDTGVSLQTYDDLLAKDCHCI
Take B16: in experiment [1], the “GLP-1 activity (EC50, pM)” value came to 3.1 pM. The “GDF15 activity (EC50, pM)” value in experiment [2] came out at 29.9 pM.

B17: MLC102 (ligand)
chain: HGEGTFTSDVSSYLEEQAAKEFIAWLVRGGGGQEPGAQPGQEPGAQPGQEPGAQPGQEPGAQPGQEPGAQPGQEPGAQPGAQPGAQPGAQPGAQPGAQPGAQPGAQPGAQPGAQPGAQPGAQPGAQPGAQPGAQPGAQPGAQPGAQPGAQPARQGDHCPLGPGRCCRLHTVRASLEDLGWADWVLSPREVQVTMCIGACPSQFRAANLHAQIKTSLHRLKPDTVPAPCCVPASYNPMVLIQKTDTGVSLQTYDDLLAKDCHCI
As for B17, the “GLP-1 activity (EC50, pM)” value in experiment [1] was 2.5 pM. The “GDF15 activity (EC50, pM)” value in experiment [2] was determined as 29 pM.

B18: MLC021 (ligand)
chain: HGEGTFTSDVSSYLEEQAAKEFIAWLVRGGGGQEPGAQPGQEPGAQPGQEPGAQPGQEPGAQPGQEPGAQPGQEPGAQPGAQPGAQPGAQPGAQPGAQPGAQPGAQPGAQPARQGDHCPLGPGRCCRLHTVRASLEDLGWADWVLSPREVQVTMCIGACPSQFRAANLHAQIKTSLHRLKPDTVPAPCCVPASYNPMVLIQKTDTGVSLQTYDDLLAKDCHCI
Take B18: in experiment [1], the “GLP-1 activity (EC50, pM)” value was 5.7 pM. In addition, the “GDF15 activity (EC50, pM)” value in experiment [2] amounted to 67.3 pM.

B19: MLC019 (ligand)
chain: HGEGTFTSDVSSYLEEQAAKEFIAWLVRGGGGQEPGAQPGQEPGAQPGQEPGAQPGQEPGAQPGQEPGAQPGQEPGAQPGAQPGAQPGAQPGAQPGAQPGAQPGAQPGAQPARQGDHCPLGPGRCCRLHTVRASLEDLGWADWVLSPREVQVTMCIGACPSQFRAANLHAQIKTSLHRLRPDTVPAPCCVPASYNPMVLIQRTDTGVSLQTYDDLLARDCHCI
Consider B19, for which the “GLP-1 activity (EC50, pM)” value in experiment [1] came out at 8 pM. The “GDF15 activity (EC50, pM)” value in experiment [2] was found to be 80.5 pM.

B20: MLC096 (ligand)
chain: HGEGTFTSDVSSYLEEQAAKEFIAWLVRGGGGQEPGAQPGQEPGAQPGQEPGAQPGQEPGAQPGQEPGAQPGQEPGAQPGAQPGAQPGAQPGAQPGAQPGAQPGAQPGAQPARQGDHCPLGPGRCCRLHTVRASLEDLGWADWVLSPREVQVTMCIGACPSQFRAANLHAQIKTSLHRLKPDTVPAPCCVPASYNPMRLIQKTDTGVSLQTYDDLLAKDCHCI
Turning to B20, in experiment [1], the “GLP-1 activity (EC50, pM)” value came to 1.3 pM. Moreover, the “GDF15 activity (EC50, pM)” value in experiment [2] is more than 5000 pM.

(Values after patent US20220017589A1 (BEIJING QL BIOPHARMACEUTICAL, published 2022).)
